Consider three molecules from patent US6492106B1, “Mammalian proteins that bind to FKBP12 in a rapamycin-dependent fashion” (The Johns Hopkins University, priority 1994, dated 2002).

The target in experiment [1] is RAFT1 (Rapamycin And FKBP12 Target 1), 245 kDa protein (rat) (UniProt P42346). Description: DSS crosslinking in heparin column eluate with 1 uM rapamycin plus 1 uM FK506 (small-molecule competitor).
The target in experiment [2] is RAFT2 (Rapamycin And FKBP12 Target 2), 35 kDa protein. The description is as above.
Experiment [3] addresses FKBP12 / RAFT1 (245 kDa) and RAFT2 (35 kDa) (Rattus norvegicus, UniProt P42346+Q62658). Nature of the experiment: Crosslinking assay: 32P-FKBP12 with heparin column eluate of rat brain cytosol.

Entries after “also recorded” stand apart in the source; their conditions may differ.

In the case of “32P-radiolabeled FKBP12 probe (recombinant rat FKBP12 with two consensus PKA sites added at the N-terminus, cleaved from GST with thrombin) (from UniProt Q62658 1-108)”, the reduction of crosslinked band intensity in experiment [1] and in experiment [2] was 50% in each case.

On to `C=CC[C@@H]1/C=C(\C)C[C@H](C)C[C@H](OC)[C@H]2O[C@@](O)(C(=O)C(=O)N3CCCC[C@H]3C(=O)O[C@H](/C(C)=C/[C@@H]3CC[C@@H](O)[C@H](OC)C3)[C@H](C)[C@@H](O)CC1=O)[C@H](C)C[C@@H]2OC` [FK506, reference compound], for which the “reduction of the intensities of the crosslinked bands” value in experiment [3] (equal concentrations (1 μM) of rapamycin and FK506) is listed as “approximately 50%”.

B1: unlabeled FKBP12: immunophilin receptor protein for FK506 and rapamycin, used unlabeled in excess (1 μM) as competitor (protein)
chain: GVQVETISSGDGRTFPKRGQTCVVHYTGMLEDGKKFDSSRDRNKPFKFTLGKQEVIRGWEEGVAQMSVGQRAKLIISPDYAYGATGHPGIIPPHATLVFDVELLKLE
As for B1, the “antagonism of rapamycin-induced crosslinking of 32P-FKBP12 to the target proteins” value in experiment [3] (competitor at 1 μM, all rapamycin concentrations tested) is on record as “prevent the rapamycin-dependent association; also recorded: completely suppressed the appearance of the crosslinked bands”.
